Experiment: soluble on expression in E. coli; label from the status in PepcDB or PDB records

| Sequence | soluble on expression in E. coli |
| --- | --- |
| MVVRSLLRVSRLTSASCRHASLAVSSTPKPYIPSVTGVQKSMPFDNLLEQYSRVHWDDSVTYDDPNVQKLFKSLMSGSRAALASAITLVESRHPTKRAQGNMLLKMVLDEEREKYKKFGRDSMIFRVGISGSPGVGKSSFIEALGAELTENRGKKVAVLTIDPTSAMTGGSVLGDLTRMQELSRNPKAYIRQSPTSGSLGGVTRGIHEAVILCEGAGYDIVIIETVGVGQSETSVSDMCDMMCLLLSPAHGDELQGVKRGIMEMSDLLVVTKDDGDLKAKAKMTQAEYISALKFMRPRLDVWRPKVMRSSIMDKESVSEVCSSLYEFWDTIGESGDLERRRQDQMKKWMWNHVKDEIMSVFQKHPKIAHLAPKLENEIRSGKITPGLAAETMIRTFFGV | not soluble |
| MSNVSSETVNLNNTSIVHMNMSNVTKLTASNYIMWSRQVHALLHGYGLTQYLDATKAAPAREITVNDVASVNPEYEAWSRQDQLIFSALIGTLSLTVQPTVSRAATSADVWATLAGTYAKPSRGHIKQLQHQIKQWKKDTRTIDEYVQGFINRFDQLALIGKIIDHEDQVDYILGGLPEDYKPIVDQMEGRDTPPNGCLTNSCDEDGCFIQMALNSV | soluble |
| MGSDKIHHHHHHMKKIHGKVMVERHHLEILRAVERQGSLTAAAEQLHLTQSALSHAIRKLEQQLGTSVWLREGRQLRLTQAGHQLLALANRLLPQFEHAEMQIHQIAQGQRGSLRVGMECHPCYQWLLKVVGPYLQQWPDVDVDVKQEFQFGGMGALFGHDIDLLVTPDPLHKPGVRFEPVFDYEQVLVVSEDHSLADEKWVEPHQLEKETLITYPVAVERLDIFTRFFLPAHTAPARHKTIETTDIMLQMVAAGRGVSALPRWLVDDYARNMPIRALKLGQQGMPKQIFLGFRERDEAVDYLNAFVKLARSIRWN | not soluble |
| MAMDTIAFAYMGGKEYEWLFFEVYDRVRRFYRDVRLPINIVYAGKIILPPGTLIRVETASGFVNMYSFEAVVEALYGKLVEMRDDVNDDSITKIFGITTFPIGSRDRYFDIYKKYLGIQVNVGDYHVLALSIKPFFTENKYLFIERVFKGVLHEIGHLYGLSHCHEDCVMNPPKDIKDWDLRTPTYCNTCLRKLKNKEELMPKLQLLEHHHHHH | not soluble |
| MGSDKIHHHHHHKSVHPYWSQVEQGVKAAGKALGVDTKFFVPQKEDINAQLQMLESFIAEGVNGIAIAPSDPTAVIPTIKKALEMGIPVVTLDTDSPDSGRYVYIGTDNYQAGYTAGLIMKELLGGKGKVVIGTGSLTAMNSLQRIQGFKDAIKDSEIEIVDILNDEEDGARAVSLAEAALNAHPDLDAFFGVYAYNGPAQALVVKNAGKVGKVKIVCFDTTPDILQYVKEGVIQATMGQRPYMMGYLSVTVLYLMNKIGVQNTLMMLPKVKVDGKVDYVIDTGVDVVTPENLDEYLKKMEELGIPIKF | not soluble |
| MGSDKIHHHHHHMNTPFMLHQGTSPVILAFPHTGTEVPPAIWDRLDDNGRIFADTDWHIHTLYAGLLENATTVRATFHRYVIDANRDPAGVSLYPGQNTTGLVPETDFDGKPIWKTGAEPNEADIAHRLETFHAPYHAALAAEIERVKSIHGIAILYDCHSIRSHIPFLFEGKLPDFNIGTDMGKTCDPAIEKIAVEVTAAAQGYDSILNGRFKGGWTTRHYGKPQTGVHAIQMELAQSTHLQNEHPPFAYDTGKAERLRTHLKTILTRMEKFALDTK | not soluble |
| MAHHHHHHMAPQFYLGLQMSAIIAAIPDITRAHSAVEVSEMTDLLRAGVTPYARMLDDEDFNEEFVFGMYGMALDSWQRASYEEMTKKYHLALTAIHEAINPPFKLEHFQRITRLVLARAEHVPPADYYSGHLFLRRLRRRWRRLRKIPEPAQVALVPYVDLVNHSNRPNCTIRIGPSSVLSGESAITLFTLRDVLPGQELCRHYNFALNRASALFRYGFLPFDLISIVEHDAVDEHVMKSRDMFRAVSEEQLEHQRREAEEVARLEKLFQDAKQSHGGSGAAASTPPGRQPNPSLSDRVSRREE | not soluble |
| MGHHHHHHGGHMSLSTKAKQQSSQQMTRGFEPYQETKGEEYMSERMRAHFTAILNKWKQELMEEVDRTVHHMQDEAANFPDPADRASQEEEFSLELRARDRERKLIKKIDETLQLIEDEEYGWCDSCGVEIGIRRLEARPTATLCIDCKTLAEIREKQLGSEGGS | soluble |
| MKAQVEYIILPFKKRLDGFTYWQRELEPAIHPALKAYVKAENATGGVSSVMIFWEIARNTDHFCSDFKTDRDVRMFLTLYFWKYLCYFANIDFYTGQDKTEEILKGEAD | not soluble |

— the DeepSol protein solubility set
